From the Immune Epitope Database (IEDB)
Each block holds one sequence with its values, some of them ahead of it.

Tests used:
HLA-B*15:09 = test: IEDB peptide-MHC binding, purified MHC/direct/fluorescence; filed as Kd, often an IC50 or EC50 that approximates it; ≥ and ≤ were set here for values at or beyond the usual limits of such assays; details: source organism: Mycobacterium tuberculosis str. Haarlem
HLA-B*15:01 = test: as above
HLA-A*03:01 = test: as above
HLA-A*02:11 = test: as above; details: source organism: Mycobacterium tuberculosis str. Haarlem
HLA-A*26:01 = test: as above; details: source organism: Mycobacterium tuberculosis str. Haarlem
HLA-B*48:01 = test: as above
HLA-A*02:01 [1] = test: as above
HLA-B*46:01 = test: as above
HLA-B*51:01 = test: as above
HLA-A*02:12 [2] = test: as above; details: source organism: Mycobacterium tuberculosis str. Haarlem
HLA-B*58:01 = test: as above
HLA-A*69:01 = test: as above
HLA-B*40:01 = test: as above
HLA-B*15:17 = test: as above
HLA-A*31:01 = test: as above
HLA-A*11:01 = test: as above
HLA-B*39:01 = test: as above; details: source organism: Mycobacterium tuberculosis str. Haarlem
HLA-A*01:01 [3] = test: as above
HLA-B*18:01 = test: as above
HLA-B*57:01 = test: as above
HLA-B*27:05 = test: as above
HLA-B*44:02 = test: as above; details: source organism: Yellow fever virus
HLA-B*08:02 = test: as above
HLA-A*02:01 [4] = test: IEDB peptide-MHC binding, purified MHC/competitive/fluorescence; filed as Kd, often an IC50 or EC50 that approximates it; ≥ and ≤ were set here for values at or beyond the usual limits of such assays
HLA-A*02:16 = test: as above; details: source organism: Entamoeba histolytica HM-1:IMSS
HLA-B*45:06 = test: as above
HLA-C*04:01 = test: as above
HLA-B*15:42 = test: as above
HLA-B*83:01 = test: as above
HLA-A*01:01 [5] = test: as above; details: source organism: Mycobacterium tuberculosis variant bovis BCG str. Pasteur 1173P2
HLA-A*02:12 [6] = test: as above; details: source organism: Giardia lamblia ATCC 50803
HLA-C*05:01 = test: IEDB peptide-MHC binding, purified MHC/direct/fluorescence; filed as Kd, often an IC50 or EC50 that approximates it; ≥ and ≤ were set here for values at or beyond the usual limits of such assays; details: source organism: Rattus norvegicus
HLA-B*07:02 = test: as above; details: source organism: Yellow fever virus
[7] = source organism: Burkholderia mallei
[8] = source organism: Yellow fever virus
[9] = source organism: West Nile virus
[10] = source organism: Mycobacterium tuberculosis C
[11] = source organism: Mycobacterium tuberculosis

Sequence: APAKKAAAK
Kd (HLA-B*15:09): ≥ 20 µM | Kd (HLA-B*15:01; [7]): ≥ 20 µM | Kd (HLA-A*03:01; [7]): ≥ 20 µM | Kd (HLA-A*02:11): ≥ 20 µM | Kd (HLA-A*26:01): ≥ 20 µM | Kd (HLA-B*48:01; [7]): ≥ 20 µM | Kd (HLA-A*02:01 [1]; [7]): ≥ 20 µM | Kd (HLA-B*46:01; [7]): ≥ 20 µM | Kd (HLA-B*51:01; [7]): ≥ 20 µM | Kd (HLA-A*02:12 [2]): ≥ 20 µM | Kd (HLA-B*58:01; [7]): ≥ 20 µM | Kd (HLA-A*69:01; [7]): ≥ 20 µM | Kd (HLA-B*40:01; [7]): ≥ 20 µM | Kd (HLA-B*15:17; [7]): ≥ 20 µM | Kd (HLA-A*31:01; [7]): ≥ 20 µM | Kd (HLA-A*11:01; [7]): ≥ 20 µM | Kd (HLA-B*39:01): ≥ 20 µM | Kd (HLA-A*01:01 [3]; [7]): ≥ 20 µM | Kd (HLA-B*18:01; [7]): ≥ 20 µM | Kd (HLA-B*57:01; [7]): ≥ 20 µM | Kd (HLA-B*27:05; [7]): ≥ 20 µM

Sequence: EVRLATMLF
Kd (HLA-A*03:01; [8]): ≥ 20 µM | Kd (HLA-B*48:01; [8]): ≥ 20 µM | Kd (HLA-A*02:01 [1]; [8]): ≥ 20 µM | Kd (HLA-B*46:01; [8]): ≥ 20 µM | Kd (HLA-B*44:02): ≥ 20 µM | Kd (HLA-B*58:01; [8]): ≥ 20 µM | Kd (HLA-B*40:01; [8]): ≥ 20 µM | Kd (HLA-A*31:01; [8]): ≥ 20 µM | Kd (HLA-A*11:01; [8]): ≥ 20 µM | Kd (HLA-A*01:01 [3]; [8]): ≥ 20 µM | Kd (HLA-B*08:02; [8]): ≥ 20 µM | Kd (HLA-B*57:01; [8]): ≥ 20 µM | Kd (HLA-B*27:05; [8]): ≥ 20 µM

Sequence: FHFNPLPNV
Kd (HLA-A*02:01 [4]; source organism: Entamoeba histolytica HM-1:IMSS): 115 nM | Kd (HLA-A*02:16): 129 nM

Sequence: REWFMDLNL
Kd (HLA-B*45:06; [9]): ≥ 5 µM | Kd (HLA-C*04:01; [9]): ≥ 5000 nM | Kd (HLA-B*15:42; [9]): ≥ 5 µM | Kd (HLA-B*83:01; [9]): ≥ 5 µM | Kd (HLA-B*18:01; [9]): 1.36 µM

Sequence: RLYELIGSV
Kd (HLA-B*45:06; [10]): ≥ 5 µM | Kd (HLA-C*04:01; [10]): ≥ 5000 nM | Kd (HLA-B*15:42; [10]): ≥ 5 µM | Kd (HLA-B*83:01; [10]): ≥ 5 µM

Sequence: SPREECGVF
Kd (HLA-A*01:01 [5]): ≥ 20 µM | Kd (HLA-B*15:09): ≥ 20 µM | Kd (HLA-B*15:01; [11]): 1.2 µM | Kd (HLA-A*03:01; [11]): ≥ 20 µM | Kd (HLA-A*26:01): ≥ 20 µM | Kd (HLA-B*48:01; [11]): ≥ 20 µM | Kd (HLA-A*02:01 [1]; [11]): ≥ 20 µM | Kd (HLA-B*46:01; [11]): ≥ 20 µM | Kd (HLA-B*51:01; [11]): ≥ 20 µM | Kd (HLA-B*58:01; [11]): ≥ 20 µM | Kd (HLA-A*69:01; [11]): ≥ 20 µM | Kd (HLA-B*40:01; [11]): ≥ 20 µM | Kd (HLA-B*15:17; [11]): ≥ 20 µM | Kd (HLA-A*31:01; [11]): ≥ 20 µM | Kd (HLA-A*11:01; [11]): ≥ 20 µM | Kd (HLA-B*08:02; source organism: Mycobacterium tuberculosis str. Haarlem): ≥ 20 µM | Kd (HLA-B*18:01; [11]): ≥ 20 µM | Kd (HLA-B*57:01; [11]): ≥ 20 µM | Kd (HLA-B*27:05; [11]): ≥ 20 µM

Sequence: SVFQGALFA
Kd (HLA-A*02:01 [4]; source organism: Giardia lamblia ATCC 50803): 1890 nM | Kd (HLA-A*02:12 [6]): 11 µM

Kd (HLA-C*04:01; source organism: Rattus norvegicus): 1.5 nM | Kd (HLA-C*05:01): 109 nM | Kd (HLA-A*02:01 [1]; source organism: Homo sapiens): ≥ 22.7 µM | Kd (HLA-A*69:01; source organism: Homo sapiens): ≥ 28.4 µM | Kd (HLA-A*11:01; source organism: Homo sapiens): ≥ 44.1 µM | Kd (HLA-A*01:01 [3]; source organism: Homo sapiens): 3.6 µM
Sequence: YFDPANGKF

Sequence: YFHKRDMRL
Kd (HLA-B*15:01; [8]): ≥ 20 µM | Kd (HLA-A*03:01; [8]): ≥ 20 µM | Kd (HLA-B*48:01; [8]): ≥ 20 µM | Kd (HLA-B*46:01; [8]): ≥ 20 µM | Kd (HLA-B*44:02): ≥ 20 µM | Kd (HLA-B*58:01; [8]): ≥ 20 µM | Kd (HLA-B*07:02): ≥ 20 µM | Kd (HLA-A*69:01; [8]): ≥ 20 µM | Kd (HLA-B*40:01; [8]): ≥ 20 µM | Kd (HLA-A*11:01; [8]): ≥ 20 µM | Kd (HLA-A*01:01 [3]; [8]): ≥ 20 µM | Kd (HLA-B*08:02; [8]): 4.63 µM | Kd (HLA-B*18:01; [8]): ≥ 20 µM | Kd (HLA-B*57:01; [8]): ≥ 20 µM | Kd (HLA-B*27:05; [8]): ≥ 20 µM
